Source: PMC5667929, “Combinatorial action of Grainyhead, Extradenticle and Notch in regulating Hox mediated apoptosis in Drosophila larval CNS” (PLoS Genetics, 2017)

Molecular target: T1, His tagged Grh (551-1333 aa) (Drosophila, UniProt P13002 551-1333)
T1 construct: Grainyhead (Grh), Drosophila transcription factor, residues 551-1333; also called His-Grh; Grainyhead; source: bacterial culture (induced two hours with 0.5mM IPTG at 18°C), in lysate for the pull-down
Assay: native gel or EMSA; proteins (100 or 200 ng) mixed with DNA oligos of motifs from the 1Kb F3B3 enhancer; complexes seen on DNA only; 20 ul, room temperature, 30 minutes; binding buffer with Tris pH 7.5, KCl, MgCl2, EDTA, DTT, BSA, glycerol, polydIdC
Conditions: both partners purified

T1 sequence (P13002 551-1333): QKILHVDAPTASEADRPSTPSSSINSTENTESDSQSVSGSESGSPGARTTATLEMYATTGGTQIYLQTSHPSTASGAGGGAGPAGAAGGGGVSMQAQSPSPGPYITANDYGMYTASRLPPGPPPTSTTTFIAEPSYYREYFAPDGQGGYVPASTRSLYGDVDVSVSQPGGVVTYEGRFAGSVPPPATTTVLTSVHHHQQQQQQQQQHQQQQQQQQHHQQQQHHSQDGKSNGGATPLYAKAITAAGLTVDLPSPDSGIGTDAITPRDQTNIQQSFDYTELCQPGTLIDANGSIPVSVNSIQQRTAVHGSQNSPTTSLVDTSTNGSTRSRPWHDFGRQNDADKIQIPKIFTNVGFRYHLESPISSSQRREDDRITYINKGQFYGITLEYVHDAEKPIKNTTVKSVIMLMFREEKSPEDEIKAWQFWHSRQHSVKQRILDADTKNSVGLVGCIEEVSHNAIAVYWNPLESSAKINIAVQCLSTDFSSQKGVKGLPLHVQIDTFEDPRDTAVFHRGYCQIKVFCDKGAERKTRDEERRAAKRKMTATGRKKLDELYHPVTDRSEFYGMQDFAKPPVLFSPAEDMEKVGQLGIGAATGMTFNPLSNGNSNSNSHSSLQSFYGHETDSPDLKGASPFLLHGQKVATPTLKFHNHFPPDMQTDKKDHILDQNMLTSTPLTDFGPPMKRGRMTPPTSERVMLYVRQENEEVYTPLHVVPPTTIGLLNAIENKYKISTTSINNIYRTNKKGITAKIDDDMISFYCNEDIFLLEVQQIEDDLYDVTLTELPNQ

B1: 6X His-tagged AbdA (residues 261-590) (domain or fragment)
chain: not shown
notes: Abdominal-A (AbdA), Drosophila Hox protein, residues 261-590; also called Hox
binding result: binds
